Results taken from a protein production outcome set (Wang et al. 2014).

Assay: label from the status in PepcDB records
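Note: failed if final PepcDB status was selected cloned or expressed and not failed if soluble or beyond.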

Sequence	protein production
MPTIRINKLTDPVVFLHILFFLIIASSSLTYWKMSDYAVNQSWDAYFYKYSDYLDLVPTWEKILKDAFSLVLLLASIYFPRRKILDFSPNINLQRYYLSFILLFFLSLSNLFASRDVTNLTLFTIVAVIRPFLITASLLFFCHKHLNFFYFRIILECVNIIGIIQVYHSFLQRNSAIINNGLDWLHSGSARSVGTFADPNTLGRFLALLIMVNLFMLPPNIIRFFLIISYGIALFFTGSRASLLIIGIFILLFVAIKLSRQSIASTRAKNLTFAFLLTVPLLQFLLLRINLISNRADDTASPLQDGRYHILFNLINRLNPYEFIFGNYLGYGSNALILTGYDGSNFLSDSTPASLIGQFGITGLLLFILIVINLFKQTPRHININNSQDYLVLTGDLLQSRNALSFYLIISCFTTIIFESYAVIPILLGLIFYDNLDLKNIKF	failed
MPTLIVLIGPTGVGKTELSLRLAENFHTSIVSADSRQLYAELKIGTAAPTPDQLKRVPHYLVGTLHLTDYYSAAQYEQEAMEILHQLFTEHEVVVLTGGSMMYVDAICKGIDDIPTVDAETRQVMLQKYEEEGLEQLCAELRLLDPDYYRIVDLKNPKRVIHALEICYMTGKTYTSFRTQQKKERPFRILKIGLTRDREELYDRINRRVDQMMEEGLLDEVRSVLSYRHLNSLNTVGYKELFKYLDGEWELPFAIEKIKQNSRIYSRKQMTWFKRDEEIRWFHPEQETEILEYLRLQNLTHLPSLDTFLEHHHHHH	not failed
MPTLKSYFLKDTSLRTEILAGATTFLTMVYIVFVNPKVLHDAGMDQGAVFTATCLITAFACALTGFIANTPIGVAPSVALNIYFSYSVVQGMGVDWQHALAMVFISGLLFLFLTLTKLRRLLVEAIPHNLQIAIVIGISLLIALIALENNQIIIGDQHNLMRLGSIIRPETGLFFLGFILILTLDYHKIPGAIIIGILSISVLSLILGLTSWQGLIAMPPSLEPTFLQLDFSGLSSIVALKTIFTFFLITVFDATGSLIGLLSPTIFKHEKNYYKRLTRSLTADAAASSLAGLMGSASTSPYIESATGIEAGGRTGLTALVIATGFILMLFLFPLAKMIPSFAVGPALLYVACCMIKHITNMKLQDITETAPCMVIIMMVPFTASIADGIGLGIILYTLLKLFTRQKPNPLIIVLSLVFTVFFLIN	failed
MPTPAPSADSTAERRHREKDTPLHRAARRGDADAVRELLARGAEIDALDDKGRTPYRLALDAGHPEIARWLAAAGADRHRSAAGTPGESEKRPRHPPSRLSSKDGIDGYPGWPALTVAAWRGHASTVETLLARGADVAARAPDGHTPLTRAAWNGHAGIVKILLAHGAEADVATPDGRTALMWAAREGHGEVVAVLAAAGARLDATDGDGNTALSWAAQRGKATTVRVLCSLGAATGVARKDGRTPIMLAALGGHPESVEVLLAASADPNATDADGHTALWHAVDGGHSGIVEILLAHGASFDRDRAPGHDALARAAWKGDEKTAGLLLAYGARVDAPSGDGNTALAVAAGRGHAGVIRLLLRKGANPDRRNRRNMTALMLAAQAGHSETVAALLEAGADPTLRNRHRHTAVSLARAGGHEDCVKILEKHRVGRRTLLGFLW	failed
MPTPGTGSVPELQLVPFQLGHFPILQRWFATEKELVQWAGPALRHPLSLEQMHEDLAESRRRPPLRLLWSACRDDQVIGHCQLLFDRRNGVVRLARIVLAPSARGQGLGLPMLEALLAEAFADADIERVELNVYDWNAAARHLYRRAGFREEGLRRSATRVGRERWNVVLMGLLRQEWAAGGAGND	not failed
MPTPRPEPAAPPGNNQAGPPAGGPIISPTDLIAIQPPRAVAGDFVPDEVLVTVDGDAGAVQQIAASFGLEVRSQRQSRLLGTTLVRFGIPDGRPVGVVLAQLAADGRTQRREPNHIYSLQQAAGIVNYAFDRIALDAKQASGENIRVAVIDTGIDDTNPALAGVIAAQFDAMPGVPVEKRDHGTSIDGLIAGVGALEGMAPGARIYHARAFEGGKSTMDVILSALDWAAEQNVSIINMSFVGPKNDLLGAACRNARALGMVLVAAAGNNGPKAPYGYPAAFDGVIAVTATDAKDALMPQANRGAYVFISAPGVEMVAPSGAGSDVVTGTSFAAAIVSGAIANLLHASPGRTADDIEKALAATAKDLGPKGRDNDFGYGLLDIKAAEAAKE	failed
MPVSIFMTVVNKSGVLARVTAEIAKADSNIDDITLENDKDYTTMRFILQTRDRQHLAQIFRRLKHIDEIVKMGRIKNLLEHHHHHH	not failed
MPVVDIDPDELRRLTGHRSKDDDELRQDLFGLGIEYEGETEDGDFKLEFEADRLDRLSVEGIARSLRYHAGDDRGVDIPDTNAPEWAIDVTDVPADRPYVTGAVIRGVDLDADALDSLIQLQEKLHATMGRKRAKGAIGIHDLAMLKGDTVDGDGTAARSLTYTGIDPDGDTFVPLDDDAERTPADVLTEHPTGETYADLLADHDTYPAIYDDIGLFSFPPVINGRRTEVTTDSRELFVELTGTDQWTIDRMCAIICYALDARGATIEDVTVDYPDRELHRPDFAVRTKHVSHDRIETLLGVEFTTEAVVDLAERAGLDATPTDDGYDVEIPPYRVDVRHPVDVVDDLGRAYDFNDLTPRYPDVNTIGGRTESSRLERSVRQALVGLGFEDLLNFNMTSEAENFDRMRLTPDHDAVGAAQPATIAEPYSQDFTILRTWALPSLAMVLETNTHHAYPQDLAEVGFAAHADGDTQTGVAERRTVAAVLARNDASYEDAKARLQALCDEFAVALETPPTTHPSFIDGRAATIEIDGQPAGVIGELHPGVIVEHDVEVPVAGFEFELDALR	failed
MPWQQQPIRYSADLEKPSPREQADIEKIMAKLLKNNERAYDKYKHGLRDAHAKSHAILRGELIVNEGLPPELAQGLFAEPRTYPVIARLSSTSGVRRSDKTRGVRGLGLKVLGVQGEKILPDDSSTNQDFVMVTHEDFLFADAHAYAGLGMITASLLARLSDQALWLGSGLLDLVSKAGIKLPDNLMVFVAPNRPILGLEFFSSAPFRHGDHVAKYRFAPASENVKALSGQLLPRNPAPEQHRDMIAEFFADQTAEFDFSAQLCTDPVAMPIEDAGKNWDKSISPYVSVAKIVFGPQNPYSALRRAYGDDVLAFNSWRGLAEHRPLGSINRLKKTVYESSADYRHRVNRIDRHEPLEHHHHHH	failed
MPYDTSNNTLIVSTRNHQDDDETAIVDDLQRLVNYQISDGGNINHQYFQIAQQFHHTQQQNANANALQLVAAATTATTLMPQTQAALAMNMIPAGTIPNNALWDMWNPIVPDGNRDHYTNIPFK	failed
MPYFYVFLLLLTSLLWGGNFVVGKSLVDHASPMTLTNLRWMIAIVCLLPMVWFKEKKILPPRTAILPLILMGISGVALFNIFQFLALEKTSATNVGLISTLNAISIALFSVLFLKEKVNTLQILSMILSFFGVILVLLKGDFSLLFSLHFNSGDLWMIAAVCIWGIYSVCSKWATKTTTPLMATLYSGIFGVILLLPFNIGSFTVSNINTSFITSLLYTGLISTVLCMVFWNIGVQKLGATTSGIFLNFNPIFTAILAFIFLGEELTWIQILGTIVVVTGCYLFSHFKTVAVQPVRPLMRKHS	failed
MPYKNILTLISVNNDNFENYFRKIFLDVRSSGSKKTTINVFTEIQYQELVTLIREALLENIDIGYELFLWKKNEVDIFLKNLEKSEVDGLLVYCDDENKVFMSKIVDNLPTAIKRNLIKDFCRKLS	not failed
MPYLLLTLAALFWGGNYVVGHVLVQGVDPILMTEARWALTALLLGLLYRRQIAGSRRLLRANAPAVVVLTLCGQVSFPLTLYIGLQTTSALNAAIYMSATPSMVLLINRLFFRDPVSGRNWLGVAFSTLGVMILLFQGNPLHAASLHTFAIGDLWAMGSALSWALYCSLLRLKDRRIPANGFVAVSSLLGALILVPIVIFWLMRHPAQDWAAWREPFFLSGLAYLVIFPSWLAYLFWNKGIATIGATRGEIYTHIIPLSGGVLSILFLHTQPHAWHLFSALFIMVGIGICSLEKRQAASIRLRD	failed
MQALTTYKCIEKGIVVWLTGLPGSGKTTIATRLADLLQKEGYRVEVLDGDWARTTVSEGAGFTREERLRHLKRIAWIARLLARNGVIVICSFVSPYKQARNMVRRIVEEEGIPFLEIYVKASLEEVIRRDPKGLYKKALKGELENFTGITDPYEPPENPQLVLDTESNTIEHNVSYLYSLVKAVIE	not failed
